Here are results for four substances from US20230357367A1.

Read-outs that look alike come from different tables or passages of the source.

What all share (experiment): cell-based or functional assay
The target in assay [1] is WIV1 Spike on pseudovirus (WIV1 (bat SARS-like coronavirus)).
The target in assay [2] is SARS-CoV-1 Spike on pseudovirus (SARS-CoV-1) (UniProt P59594).
Assay [3] addresses WIV1 Spike on pseudovirus (WIV1 (bat SARS-like coronavirus)). The source holds these as a separate data set.
The target in assay [4] is SARS-CoV-1 Spike on pseudovirus (SARS-CoV-1) (UniProt P59594). This is another data set of the same source.
The target in assay [5] is spike (SARS-CoV-1) (SARS-CoV-1) (UniProt P59594).
Assay [6] addresses spike (WIV-1) (WIV1 (bat SARS-like coronavirus)).

For “Sotrovimab VH/VL (human IgG1 molecule expressing the same variable regions of Sotrovimab) (antibody)”, the figures for the % neutralization at 4.5 µg/ml, pseudovirus in assay [1] and in assay [2] were 99.4% and 101%, respectively. The IC50, pseudovirus neutralization in assay [1] came out at 32 ng/mL; in assay [2], 14 ng/mL; in assay [3] it was 27.4 ng/mL; in assay [4], 8.9 ng/mL.
With AZD1061 (antibody), the % neutralization at 4.5 µg/ml, pseudovirus in assay [1] worked out at 0.8%; in assay [2], 1.2%.
On to AZD8895 (antibody), for which the % neutralization at 4.5 µg/ml, pseudovirus was 0.6% in assay [1] and 1.7% in assay [2].
Turning to bebtelovimab (antibody), the Emax, pseudovirus neutralization (% neutralization) in assay [5] stood at 8; in assay [6], 6.99.
